Values quoted from earlier work, collected in patent US8623366B2, “Methods for treating visceral pain by administering antagonist antibodies directed against calcitonin gene-related peptide” (Labrys Biologics, Inc., priority 2009, dated 2014).

Tests used:
[1] = molecular target: T1, α-rat CGRP (Rattus norvegicus, UniProt P01256); conditions: Table 6 reproduced from WO2007/054809; cited from earlier work
T1 sequence (P01256 83-119 limits assumed): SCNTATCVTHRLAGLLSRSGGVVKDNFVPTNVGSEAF

[2] = molecular target: T2, human α-CGRP (Homo sapiens, UniProt P06881); conditions: Table 6 reproduced from WO2007/054809; cited from earlier work
T2 sequence (P06881 83-119 limits assumed): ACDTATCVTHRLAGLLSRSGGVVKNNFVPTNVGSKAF

B1: M24: G1 variant: L1 R28L; HC-FW3 L99T A100V (antibody, chains of the INN, looked up, variant L:R28L H:L99T H:A100V, V domains shown)
VH: EVQLVESGGGLVQPGGSLRLSCAASGFTFSNYWISWVRQAPGKGLEWVAEIRSESDASATHYAEAVKGRFTISRDNAKNSLYLQMNSLRAEDTAVYYCTVYFDYGLAIQNYWGQGTLVTVSS
VL: EIVLTQSPATLSLSPGERATLSCKASKLVTTYVSWYQQKPGQAPRLLIYGASNRYLGIPARFSGSGSGTDFTLTISSLEPEDFAVYYCSQSYNYPYTFGQGTKLEIK
[1]
  Kd: 57.8 nM
[2]
  Kd: 0.93 nM

B2: M26: G1 variant: L1 R28N; H2 A57G; HC-FW3 L99T A100V (antibody, chains of the INN, looked up, variant L:R28N H:A57G H:L99T H:A100V, V domains shown)
VH: EVQLVESGGGLVQPGGSLRLSCAASGFTFSNYWISWVRQAPGKGLEWVAEIRSESDGSATHYAEAVKGRFTISRDNAKNSLYLQMNSLRAEDTAVYYCTVYFDYGLAIQNYWGQGTLVTVSS
VL: EIVLTQSPATLSLSPGERATLSCKASKNVTTYVSWYQQKPGQAPRLLIYGASNRYLGIPARFSGSGSGTDFTLTISSLEPEDFAVYYCSQSYNYPYTFGQGTKLEIK
[1]
  Kd: 51.3 nM
[2]
  Kd: 0.93 nM

B3: M31: G1 variant: L1 R28N T30G; H2 E54K A57G; HC-FW3 L99T A100V (antibody, chains of the INN, looked up, variant L:R28N L:T30G H:E54K H:A57G H:L99T H:A100V, V domains shown)
VH: EVQLVESGGGLVQPGGSLRLSCAASGFTFSNYWISWVRQAPGKGLEWVAEIRSKSDGSATHYAEAVKGRFTISRDNAKNSLYLQMNSLRAEDTAVYYCTVYFDYGLAIQNYWGQGTLVTVSS
VL: EIVLTQSPATLSLSPGERATLSCKASKNVGTYVSWYQQKPGQAPRLLIYGASNRYLGIPARFSGSGSGTDFTLTISSLEPEDFAVYYCSQSYNYPYTFGQGTKLEIK
[1]
  Kd: 201 nM
[2]
  Kd: 2.17 nM

B4: M38: G1 variant: L1 R28N T30W; HC-FW3 L99T A100V (antibody, chains of the INN, looked up, variant L:R28N L:T30W H:L99T H:A100V, V domains shown)
VH: EVQLVESGGGLVQPGGSLRLSCAASGFTFSNYWISWVRQAPGKGLEWVAEIRSESDASATHYAEAVKGRFTISRDNAKNSLYLQMNSLRAEDTAVYYCTVYFDYGLAIQNYWGQGTLVTVSS
VL: EIVLTQSPATLSLSPGERATLSCKASKNVWTYVSWYQQKPGQAPRLLIYGASNRYLGIPARFSGSGSGTDFTLTISSLEPEDFAVYYCSQSYNYPYTFGQGTKLEIK
[1]
  Kd: 284 nM
[2]
  Kd: 1.36 nM

B5: M27: G1 variant: L1 R28N T30A; HC-FW3 L99T A100V (antibody, chains of the INN, looked up, variant L:R28N L:T30A H:L99T H:A100V, V domains shown)
VH: EVQLVESGGGLVQPGGSLRLSCAASGFTFSNYWISWVRQAPGKGLEWVAEIRSESDASATHYAEAVKGRFTISRDNAKNSLYLQMNSLRAEDTAVYYCTVYFDYGLAIQNYWGQGTLVTVSS
VL: EIVLTQSPATLSLSPGERATLSCKASKNVATYVSWYQQKPGQAPRLLIYGASNRYLGIPARFSGSGSGTDFTLTISSLEPEDFAVYYCSQSYNYPYTFGQGTKLEIK
[1]
  Kd: 189 nM
[2]
  Kd: 2.23 nM

B6: M37: G1 variant: L1 R28N T30S; H2 A57G; HC-FW3 L99T A100V (antibody, chains of the INN, looked up, variant L:R28N L:T30S H:A57G H:L99T H:A100V, V domains shown)
VH: EVQLVESGGGLVQPGGSLRLSCAASGFTFSNYWISWVRQAPGKGLEWVAEIRSESDGSATHYAEAVKGRFTISRDNAKNSLYLQMNSLRAEDTAVYYCTVYFDYGLAIQNYWGQGTLVTVSS
VL: EIVLTQSPATLSLSPGERATLSCKASKNVSTYVSWYQQKPGQAPRLLIYGASNRYLGIPARFSGSGSGTDFTLTISSLEPEDFAVYYCSQSYNYPYTFGQGTKLEIK
[1]
  Kd: 80.6 nM
[2]
  Kd: 1.41 nM

B7: M28: G1 variant: L1 R28N T30D; H2 E54R A57N; HC-FW3 L99T A100V (antibody, chains of the INN, looked up, variant L:R28N L:T30D H:E54R H:A57N H:L99T H:A100V, V domains shown)
VH: EVQLVESGGGLVQPGGSLRLSCAASGFTFSNYWISWVRQAPGKGLEWVAEIRSRSDNSATHYAEAVKGRFTISRDNAKNSLYLQMNSLRAEDTAVYYCTVYFDYGLAIQNYWGQGTLVTVSS
VL: EIVLTQSPATLSLSPGERATLSCKASKNVDTYVSWYQQKPGQAPRLLIYGASNRYLGIPARFSGSGSGTDFTLTISSLEPEDFAVYYCSQSYNYPYTFGQGTKLEIK
[1]
  Kd: 69.4 nM
[2]
  Kd: 0.62 nM
